Measured values reported in patent publication CN116063506A (HUADAO SHANGHAI BIOMEDICAL CO LTD, dated 2023).

Biological target: T1, CD4抗原 (表面抗原分化簇4, Cluster of Differentiation 4) (UniProt P01730 26-458, limits assumed)
T1 construct: whole, on cells; also called 细胞表面的CD4抗原; Nalm6-CD4
Experiment: flow cytometry on Nalm6-CD4 cells; antibody from 4 μg/mL in 4-fold dilutions, 10 concentrations; APC goat anti-mouse IgG secondary

B1: 分离的抗体(标记为CD4-14) (antibody, V domains shown)
VH: QVQLVQSGPELKKPGASVKVSCKASGYTFTDYVIHWVKQATGQGLEWIGEIYPGSGSAYSNAKFKDRVTMTADKSSNTAYMELSSLTSDDTAVYFCARRGNGTGFAYWGQGTLVTVSS
VL: DIVLTQSPASLAVSLGQRATITCKAGQSVDYDGDSYMNWYQQKPGQPPKLLIYVASNLESGIPARFSGSGSGTDFTLNIHPVEENDAATYYCQQSYKDPLTFGQGTKLEIK
notes: also called 分离抗体; 本发明的分离抗体
EC50: 0.152 µg/mL
